# Measurements reported in patent US20220389073A1, “Novel Mini-Insulin With Extended C-Terminal A Chain” (University of Utah Research Foundation, priority 2019, published 2022).
# Columns and labels:
# [1] = known property of shortened human insulin; cited from earlier work
# hIR = hIR (Homo sapiens, UniProt P06213); assay: hIR activation / insulin signaling activation; format: cell-based
Substance,oligomeric state [1],hIR activation activity compared with enzymatically synthetic DOI (hIR),"potency, fold weaker than human insulin (hIR; relative to human insulin)",potency for hIR activation compared with human insulin (hIR; FIG. 7)
Des-octapeptide (B23-30) human insulin [DOI],monomeric,same,"1,000 fold",
"quadruple DOI mutant: DOI with A8 His, A9 Arg, B10 Glu, B20 Tyr; SEQ ID NO: 12 and SEQ ID NO: 3",,,,comparable to that of human insulin
